Measured values taken from patent US20210139588A1.

Columns and labels:
[1] = biological target: wild type (glycosylated) PD-1 expressed on 293T cells (PD-1-Flag) (human) (UniProt Q15116); experiment: flow cytometry on 293T cells expressing the PD-1 form, labeled secondary antibody; control antibody
[2] = biological target: N58Q mutant PD-1 expressed on 293T cells (PD-1-Flag) (human) (UniProt Q15116); experiment: as above
[3] = biological target: N116Q mutant PD-1 expressed on 293T cells (PD-1-Flag) (human) (UniProt Q15116); experiment: as above
[4] = biological target: N49Q mutant PD-1 expressed on 293T cells (PD-1-Flag) (human) (UniProt Q15116); experiment: as above
[5] = biological target: 4NQ mutant (unglycosylated) PD-1 expressed on 293T cells (PD-1-Flag) (human) (UniProt Q15116); experiment: as above
[6] = biological target: N74Q mutant PD-1 expressed on 293T cells (PD-1-Flag) (human) (UniProt Q15116); experiment: as above
[7] = biological target: wild type (glycosylated) PD-1 expressed on 293T cells (PD-1-Flag) (human) (UniProt Q15116); experiment: flow cytometry on 293T cells expressing the PD-1 variant, anti-mouse IgG-PE secondary, DAPI-negative population gated; percent of cells right of the dashed gate; 293T blank cells give 1.69
[8] = biological target: N58Q mutant PD-1 expressed on 293T cells (PD-1-Flag) (human) (UniProt Q15116); experiment: as above
[9] = biological target: N116Q mutant PD-1 expressed on 293T cells (PD-1-Flag) (human) (UniProt Q15116); experiment: as above
[10] = biological target: N49Q mutant PD-1 expressed on 293T cells (PD-1-Flag) (human) (UniProt Q15116); experiment: as above
[11] = biological target: 4NQ mutant (unglycosylated) PD-1 expressed on 293T cells (PD-1-Flag) (human) (UniProt Q15116); experiment: as above
[12] = biological target: N74Q mutant PD-1 expressed on 293T cells (PD-1-Flag) (human) (UniProt Q15116); experiment: as above

N116Q mutant PD-1 expressed on 293T cells (PD-1-Flag) (human), sequence (Q15116 25-288 N116Q): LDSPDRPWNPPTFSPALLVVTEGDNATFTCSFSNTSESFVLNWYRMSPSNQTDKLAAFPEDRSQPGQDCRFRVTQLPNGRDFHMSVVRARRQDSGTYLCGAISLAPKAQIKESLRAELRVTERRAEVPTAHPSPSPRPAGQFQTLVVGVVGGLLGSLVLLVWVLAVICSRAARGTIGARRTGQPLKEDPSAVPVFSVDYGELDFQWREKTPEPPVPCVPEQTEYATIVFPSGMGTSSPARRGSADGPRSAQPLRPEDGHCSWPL
4NQ mutant (unglycosylated) PD-1 expressed on 293T cells (PD-1-Flag) (human), sequence (Q15116 other isoform, or with tags, fused parts or gaps mutant): as the sequence (Q15116 25-288 N116Q) above, with N25Q, N34Q, N50Q counted along it
N58Q mutant PD-1 expressed on 293T cells (PD-1-Flag) (human), sequence (Q15116 25-288 N58Q): as the sequence (Q15116 25-288 N116Q) above, with N34Q, Q92N counted along it
wild type (glycosylated) PD-1 expressed on 293T cells (PD-1-Flag) (human), sequence (Q15116 25-288): as the sequence (Q15116 25-288 N116Q) above, with Q92N counted along it
N74Q mutant PD-1 expressed on 293T cells (PD-1-Flag) (human), sequence (Q15116 25-288 N74Q): as the sequence (Q15116 25-288 N116Q) above, with N50Q, Q92N counted along it
N49Q mutant PD-1 expressed on 293T cells (PD-1-Flag) (human), sequence (Q15116 25-288 N49Q): as the sequence (Q15116 25-288 N116Q) above, with N25Q, Q92N counted along it

What does the source list for control mouse IgG (antibody)?
MFI [1]: 52 MFI; MFI [2]: 106 MFI; MFI [3]: 28 MFI; MFI [4]: 31 MFI; MFI [5]: 26 MFI; MFI [6]: 26 MFI; Unit (%) (cells in the positive gate) [7]: 10.7%; Unit (%) (cells in the positive gate) [8]: 17.6%; Unit (%) (cells in the positive gate) [9]: 2.37%; Unit (%) (cells in the positive gate) [10]: 2.73%; Unit (%) (cells in the positive gate) [11]: 1.53%; Unit (%) (cells in the positive gate) [12]: 3.25%
